In patent US20220324943A1:

Molecular target: FGF ligands
Experiment: cell-based or functional assay

B1: FGFR1-CCD fusion protein (protein)
chain: RPSPTLPEQAQPWGAPVEVESFLVHPGDLLQLRCRLRDDVQSINWLRDGVQLAESNRTRITGEEVEVQDSVPADSGLYACVTSSPSGSDTTYFSVNVSDALPSSEDDDDDDDSSSEEKETDNTKPNPVAPYWTSPEKMEKKLHAVPAAKTVKFKCPSSGTPNPTLRWLKNGKEFKPDHRIGGYKVRYATGSIIMDSVVPSDKGNYTCIVENEYGSINHTYQLDVVERSPHRPILQAGLPANKTVALGSNVEFMCKVYSDPQPHIQWLKHIEVNGSKIGPDNLPYVQILKTAGVNTTDKEMEVLHLRNVSFEDAGEYTCLAGNSIGLSHHSAWLTVLEALEERPAVMLKEFMGYQGPPGPPGPPGIPGNHGNNGNNGATGHEGAKGEKGDKGDLGPRGERGQHGPKGEKGYPGIPGYCGPPGPPGPPGIPGNHGNNGNNGATGHEGAKGEKGDKGDLGPRGERGQHGPKGEKGYPGIPDYKDDDDKLQISSTVAAAHHHHHHV
- MTT assay of HUVEC cells (cell growth / metabolic activity): < 50%
